Data reported in publication doi:10.1101/2023.12.18.572142 (bioRxiv, 2023).
Like-named read-outs stand apart in the source and are kept apart here.

Columns and labels:
Assay in all cases: SPR
[1] = target: cat Fcμ–J complex (cat)
[2] = target: T1, human Fcμ–J complex (pentameric IgM core: IgM-Fc pentamer and J chain) (human, UniProt P01871-1 106-453; P01591 23-159)
[3] = target: T1, human Fcμ–J complex (pentameric IgM …); remark: listed apart in the source
[4] = target: T1, human Fcμ–J complex (pentameric IgM …); remark: listed apart in the source
[5] = target: T2, mouse Fcμ–J complex (mouse, UniProt P01872 104-454; P01592 22-159)
T2 sequence (looked up) 1: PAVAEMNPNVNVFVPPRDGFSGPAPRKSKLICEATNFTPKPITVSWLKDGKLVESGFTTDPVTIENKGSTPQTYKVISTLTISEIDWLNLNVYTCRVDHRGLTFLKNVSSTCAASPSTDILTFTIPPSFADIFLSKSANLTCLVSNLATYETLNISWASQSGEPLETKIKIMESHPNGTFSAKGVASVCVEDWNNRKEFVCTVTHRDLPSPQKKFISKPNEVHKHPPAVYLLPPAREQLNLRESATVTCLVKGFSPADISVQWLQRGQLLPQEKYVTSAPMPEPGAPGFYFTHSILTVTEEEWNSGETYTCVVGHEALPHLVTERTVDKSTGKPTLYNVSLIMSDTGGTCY
T2 sequence (looked up) 2: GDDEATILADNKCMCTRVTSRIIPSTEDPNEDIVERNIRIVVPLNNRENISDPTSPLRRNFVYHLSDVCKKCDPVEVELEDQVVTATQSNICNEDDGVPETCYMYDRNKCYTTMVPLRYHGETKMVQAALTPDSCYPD

cat CD5L (3-SRCR isoform) (from UniProt A0A1E1GEY0 20-355) (natural protein)
Kd [1]: 11 nM

B1: D1 domain of FcμR (domain or fragment, human)
chain: RILPEVKVEGELGGSVTIKCPLPEMHVRIYLCREMAGSGTCGTVVSTTNFIKAEYKGRVTLKQYPRKNLFLVEVTQLTESDSGVYACGAGMNTDRGKTQKVTLNVHS
Kd [2]: 0.3 nM | Kd [3]: 7.2 nM

B2: human CD5L (CD5 antigen-like) (natural protein, UniProt O43866 20-347, looked up)
chain: SPSGVRLVGGLHRCEGRVEVEQKGQWGTVCDDGWDIKDVAVLCRELGCGAASGTPSGILYEPPAEKEQKVLIQSVSCTGTEDTLAQCEQEEVYDCSHDEDAGASCENPESSFSPVPEGVRLADGPGHCKGRVEVKHQNQWYTVCQTGWSLRAAKVVCRQLGCGRAVLTQKRCNKHAYGRKPIWLSQMSCSGREATLQDCPSGPWGKNTCNHDEDTWVECEDPFDLRLVGGDNLCSGRLEVLHKGVWGSVCDDNWGEKEDQVVCKQLGCGKSLSPSFRDRKCYGPGVGRIWLDNVRCSGEEQSLEQCQHRFWGFHDCTHQEDVAVICSG
Kd [4]: 30 nM

B3: mouse CD5L (natural protein, UniProt Q9QWK4 22-352, looked up)
chain: ESPTKVQLVGGAHRCEGRVEVEHNGQWGTVCDDGWDRRDVAVVCRELNCGAVIQTPRGASYQPPASEQRVLIQGVDCNGTEDTLAQCELNYDVFDCSHEEDAGAQCENPDSDLLFIPEDVRLVDGPGHCQGRVEVLHQSQWSTVCKAGWNLQVSKVVCRQLGCGRALLTYGSCNKNTQGKGPIWMGKMSCSGQEANLRSCLLSRLENNCTHGEDTWMECEDPFELKLVGGDTPCSGRLEVLHKGSWGSVCDDNWGEKEDQVVCKQLGCGKSLHPSPKTRKIYGPGAGRIWLDDVNCSGKEQSLEFCRHRLWGYHDCTHKEDVEVICTDFDV
Kd [5]: 5 nM
